Laboratory results from article PMC5881502 (The Journal of Cell Biology, 2018).

B1: Hsp42ΔIDD (purified) (natural protein, S. cerevisiae, UniProt Q12329 1-375, looked up)
chain: MSFYQPSLSLYDVLNALSNQTGQRGQQGYPRQPQRPQRYHPHYGQVHVGGHHPRHHPLYSRYNGVPNTYYYQFPGQAYYYSPEYGYDDEDGEEEDQDEDSPEVNVYDTEDTYVVVLALPGANSRAFHIDYHPSSHEMLIKGKIEDRVGIDEKFLKITELKYGAFERTVKFPVLPRIKDEEIKATYNNGLLQIKVPKIVNDTEKPKPKKRIAIEEIPDEELEFEENPNPTVEN
B2: malate dehydrogenase (MDH) (enzyme)
chain: AKVAVLGASGGIGQPLSLLLKNSPLVSRLTLYDIAHTPGVAADLSHIETRATVKGYLGPEQLPDCLKGCDVVVIPAGVPRKPGMTRDDLFNTNATIVATLTAACAQHCPDAMICIISNPVNSTIPITAEVFKKHGVYNPNKIFGVTTLDIVRANAFVAELKGLDPARVSVPVIGGHAGKTIIPLISQCTPKVDFPQDQLSTLTGRIQEAGTEVVKAKAGAGSATLSMAYAGARFVFSLVDAMNGKEGVVECSFVKSQETDCPYFSTPLLLGKKGIEKNLGIGKISPFEEKMIAEAIPELKASIKKGEEFVKNMK
B3: Hsp42ΔPrLD (purified) (domain or fragment, S. cerevisiae, UniProt Q12329 100-375, looked up)
chain: MVGDSGTTRQEDGGEDSNSRRYPSYYHCNTARNNRTNQQANSLNDLLTALIGVPPYEGTEPEIEANTEQEGEKGEEKDKKDKSEAPKEEAGETNKEKPLNQLEESSRPPLAKKSSSFAHLQAPSPIPDPLQVSKPETRMDLPFSPEVNVYDTEDTYVVVLALPGANSRAFHIDYHPSSHEMLIKGKIEDRVGIDEKFLKITELKYGAFERTVKFPVLPRIKDEEIKATYNNGLLQIKVPKIVNDTEKPKPKKRIAIEEIPDEELEFEENPNPTVEN

Legend:
[1] = molecular target: B2; experiment: HDX-MS
SEC-MALS = molecular target: the molecule itself; experiment: SEC-MALS
[2] = molecular target: Hsp42 WT (purified, C-terminally FLAG-tagged) (S. cerevisiae, UniProt Q12329 1-375); experiment: HDX-MS

Binder	binding result [1]	stoichiometry N (SEC-MALS) [subunits]	binding result [2]
B1	binds	36	
B2			binds
B3		4	
